What was measured:
Experiment in all cases: SPOT array
Bzz1-1, P38822 = biological target: T1, Bzz1-1, P38822; details: median of control spots 4446
T1 sequence (P38822 478-572, looked up): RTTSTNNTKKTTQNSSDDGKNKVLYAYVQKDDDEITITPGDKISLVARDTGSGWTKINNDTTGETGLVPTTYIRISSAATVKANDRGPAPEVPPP

Pin3, Q06449 = biological target: T2, Pin3, Q06449; details: median of control spots 2171
T2 sequence (Q06449 53-122, looked up): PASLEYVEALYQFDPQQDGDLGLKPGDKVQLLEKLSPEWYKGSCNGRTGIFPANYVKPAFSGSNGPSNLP

Nbp2, Q12163 = biological target: T3, Nbp2, Q12163; details: median of control spots 357
T3 sequence (Q12163 103-180, looked up): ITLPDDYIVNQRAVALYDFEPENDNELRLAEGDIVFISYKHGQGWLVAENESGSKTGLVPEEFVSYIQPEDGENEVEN

Sla1-3, P32790 = biological target: T4, Sla1-3, P32790; details: median of control spots 5475
T4 sequence (P32790 344-424, looked up): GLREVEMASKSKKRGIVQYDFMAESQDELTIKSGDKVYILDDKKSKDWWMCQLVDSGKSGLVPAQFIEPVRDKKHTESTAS

GST = details: median of control spots 978
Lsb3, P43603 = biological target: T5, Lsb3, P43603; details: median of control spots 406
T5 sequence (P43603 385-451, looked up): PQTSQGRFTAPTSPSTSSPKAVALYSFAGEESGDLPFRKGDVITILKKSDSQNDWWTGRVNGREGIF

Pex13, P80667 = biological target: T6, Pex13, P80667; details: median of control spots 1341
T6 sequence (P80667 295-386, looked up): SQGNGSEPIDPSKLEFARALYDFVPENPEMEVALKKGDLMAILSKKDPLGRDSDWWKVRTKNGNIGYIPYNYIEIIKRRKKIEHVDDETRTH

Cdc25, P04821 = biological target: T7, Cdc25, P04821; details: median of control spots 969
T7 sequence (P04821 50-136, looked up): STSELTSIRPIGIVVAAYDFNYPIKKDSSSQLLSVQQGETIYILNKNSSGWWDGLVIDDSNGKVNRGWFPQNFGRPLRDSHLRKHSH

Myo5, Q04439 = biological target: T8, Myo5, Q04439; details: median of control spots 471
T8 sequence (Q04439 1072-1160, looked up): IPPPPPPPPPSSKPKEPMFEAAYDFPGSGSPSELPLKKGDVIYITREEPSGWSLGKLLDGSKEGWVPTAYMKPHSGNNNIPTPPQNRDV

Boi2, P39969 = biological target: T9, Boi2, P39969; details: median of control spots 1161
T9 sequence (P39969 32-116, looked up): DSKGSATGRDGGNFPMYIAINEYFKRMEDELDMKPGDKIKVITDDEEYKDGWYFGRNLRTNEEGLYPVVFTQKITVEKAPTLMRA

Bzz1-2, P38822 = biological target: T10, Bzz1-2, P38822; details: median of control spots 4538
T10 sequence (P38822 568-633, looked up): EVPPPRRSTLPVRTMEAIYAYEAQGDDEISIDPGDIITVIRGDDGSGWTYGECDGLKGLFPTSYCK

Bud14, P27637 = biological target: T11, Bud14, P27637; details: median of control spots 956
T11 sequence (P27637 247-328, looked up): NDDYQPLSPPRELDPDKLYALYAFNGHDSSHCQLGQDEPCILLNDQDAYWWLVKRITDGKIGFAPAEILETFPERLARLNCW

Bbc1, P47068 = biological target: T12, Bbc1, P47068; details: median of control spots 796
T12 sequence (P47068 1-78, looked up): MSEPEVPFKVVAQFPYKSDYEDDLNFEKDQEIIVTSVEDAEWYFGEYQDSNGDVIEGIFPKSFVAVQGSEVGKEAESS

Boi1, P38041 = biological target: T13, Boi1, P38041; details: median of control spots 1162
T13 sequence (P38041 1-86, looked up): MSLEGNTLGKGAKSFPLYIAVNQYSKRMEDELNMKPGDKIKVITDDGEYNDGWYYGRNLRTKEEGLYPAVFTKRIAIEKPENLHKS

Cyk3, Q07533 = biological target: T14, Cyk3, Q07533; details: median of control spots 1451
T14 sequence (Q07533 1-83, looked up): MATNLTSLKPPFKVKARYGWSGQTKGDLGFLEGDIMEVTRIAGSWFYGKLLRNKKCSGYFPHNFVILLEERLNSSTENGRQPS

Sho1, P40073 = details: median of control spots 1148
Hse1, P38753 = biological target: T15, Hse1, P38753; details: median of control spots 1727
T15 sequence (P38753 208-285, looked up): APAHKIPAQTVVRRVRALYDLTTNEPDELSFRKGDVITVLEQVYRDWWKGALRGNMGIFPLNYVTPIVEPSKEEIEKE

Bem1-2, P29366 = details: median of control spots 4347
Myo3, P36006 = details: median of control spots 468
Hof1, Q05080 = biological target: T16, Hof1, Q05080; details: median of control spots 4086
T16 sequence (Q05080 590-669, looked up): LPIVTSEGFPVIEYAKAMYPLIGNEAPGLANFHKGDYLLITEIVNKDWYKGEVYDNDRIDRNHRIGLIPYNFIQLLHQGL

Bem1-1, P29366 = details: median of control spots 4282
Sla1-2, P32790 = biological target: T17, Sla1-2, P32790; details: median of control spots 712
T17 sequence (P32790 60-140, looked up): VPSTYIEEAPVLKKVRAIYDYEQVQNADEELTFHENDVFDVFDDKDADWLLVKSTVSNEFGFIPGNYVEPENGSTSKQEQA

Fus1, P11710 = biological target: T18, Fus1, P11710; details: median of control spots 1200
T18 sequence (P11710 432-512, looked up): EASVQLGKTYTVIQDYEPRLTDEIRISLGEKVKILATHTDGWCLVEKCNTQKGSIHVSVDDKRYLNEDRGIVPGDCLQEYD

Lsb4, P32793 = biological target: T19, Lsb4, P32793; details: median of control spots 397
T19 sequence (P32793 402-468, looked up): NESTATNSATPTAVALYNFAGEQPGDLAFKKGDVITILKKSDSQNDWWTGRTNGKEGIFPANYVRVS

Lsb1, P53281 = biological target: T20, Lsb1, P53281; details: median of control spots 388
T20 sequence (P53281 45-122, looked up): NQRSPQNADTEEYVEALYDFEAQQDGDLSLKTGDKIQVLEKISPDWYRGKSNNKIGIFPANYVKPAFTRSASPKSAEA

Abp1, P15891 = biological target: T21, Abp1, P15891; details: median of control spots 935
T21 sequence (P15891 535-592, looked up): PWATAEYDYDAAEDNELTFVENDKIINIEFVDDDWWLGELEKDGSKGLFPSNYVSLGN

Rvs167, P39743 = details: median of control spots 2707
Sequence of Rvs167, P39743 (P39743 419-482): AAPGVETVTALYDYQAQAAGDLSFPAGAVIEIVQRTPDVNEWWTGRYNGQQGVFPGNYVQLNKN

Sequence of Sho1, P40073 (P40073 287-367): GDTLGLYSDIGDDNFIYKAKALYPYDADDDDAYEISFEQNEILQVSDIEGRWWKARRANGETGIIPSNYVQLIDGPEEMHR
Sequence of Bem1-1, P29366 (P29366 55-141): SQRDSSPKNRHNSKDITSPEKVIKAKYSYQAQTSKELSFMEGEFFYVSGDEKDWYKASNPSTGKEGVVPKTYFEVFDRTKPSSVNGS
Sequence of Bem1-2, P29366 (P29366 139-227): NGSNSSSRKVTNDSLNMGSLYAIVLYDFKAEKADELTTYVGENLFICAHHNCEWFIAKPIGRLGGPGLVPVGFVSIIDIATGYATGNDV

Binder: KRKRRLPVSEDTNTK
- SPOT intensity (Bzz1-1, P38822): 3
- SPOT intensity (Pin3, Q06449): 4
- SPOT intensity (Nbp2, Q12163): 8
- SPOT intensity (Sla1-3, P32790): 21
- SPOT intensity (GST): 6
- SPOT intensity (Lsb3, P43603): 8
- SPOT intensity (Pex13, P80667): 0
- SPOT intensity (Cdc25, P04821): 16
- SPOT intensity (Myo5, Q04439): 0
- SPOT intensity (Boi2, P39969): 2
- SPOT intensity (Bzz1-2, P38822): 1
- SPOT intensity (Bud14, P27637): 22
- SPOT intensity (Bbc1, P47068): 77
- SPOT intensity (Boi1, P38041): 6
- SPOT intensity (Cyk3, Q07533): 8
- SPOT intensity (Sho1, P40073): 54
- SPOT intensity (Hse1, P38753): 4
- SPOT intensity (Bem1-2, P29366): 0
- SPOT intensity (Myo3, P36006): 9
- SPOT intensity (Hof1, Q05080): 0
- SPOT intensity (Bem1-1, P29366): 1
- SPOT intensity (Sla1-2, P32790): 0
- SPOT intensity (Fus1, P11710): 150
- SPOT intensity (Lsb4, P32793): 4
- SPOT intensity (Lsb1, P53281): 1
- SPOT intensity (Abp1, P15891): 78
- SPOT intensity (Rvs167, P39743): 1

Binder: QRKSLRRPTLSKPAV
- SPOT intensity (Bzz1-1, P38822): 4
- SPOT intensity (Pin3, Q06449): 9
- SPOT intensity (Nbp2, Q12163): 5
- SPOT intensity (Sla1-3, P32790): 22
- SPOT intensity (GST): 6
- SPOT intensity (Lsb3, P43603): 3
- SPOT intensity (Pex13, P80667): 3
- SPOT intensity (Cdc25, P04821): 7
- SPOT intensity (Myo5, Q04439): 3
- SPOT intensity (Boi2, P39969): 0
- SPOT intensity (Bzz1-2, P38822): 16
- SPOT intensity (Bud14, P27637): 2
- SPOT intensity (Bbc1, P47068): 37
- SPOT intensity (Boi1, P38041): 2
- SPOT intensity (Cyk3, Q07533): 4
- SPOT intensity (Sho1, P40073): 116
- SPOT intensity (Hse1, P38753): 10
- SPOT intensity (Bem1-2, P29366): 1
- SPOT intensity (Myo3, P36006): 10
- SPOT intensity (Hof1, Q05080): 4
- SPOT intensity (Bem1-1, P29366): 0
- SPOT intensity (Sla1-2, P32790): 3
- SPOT intensity (Fus1, P11710): 2
- SPOT intensity (Lsb4, P32793): 3
- SPOT intensity (Lsb1, P53281): 32
- SPOT intensity (Abp1, P15891): 78
- SPOT intensity (Rvs167, P39743): 0
